According to publication PMC8163506, “A novel ATP dependent dimethylsulfoniopropionate lyase in bacteria that releases dimethyl sulfide and acryloyl-CoA” (eLife, 2021):

Key:
Experiment in all cases: DMS production by GC, nonlinear fit of initial rates
Format in all cases: biochemical, Psychrobacter sp.
[1] = substrate: C[S+](C)CCC(=O)[O-]; conditions: co-substrates ATP and CoA, pH 8.5, 40 °C
[2] = substrate: CC(C)(COP(=O)(O)OP(=O)(O)OC[C@H]1O[C@@H](n2cnc3c(N)ncnc32)[C@H](O)[C@@H]1OP(=O)(O)O)[C@@H](O)C(=O)NCCC(=O)NCCS; conditions: co-substrates DMSP and ATP, pH 8.5, 40 °C
[3] = substrate: Nc1ncnc2c1ncn2[C@@H]1O[C@H](COP(=O)(O)OP(=O)(O)OP(=O)(O)O)[C@@H](O)[C@H]1O; conditions: co-substrates DMSP and CoA, pH 8.5, 40 °C

B1: DddX (Psychrobacter sp.) (protein)
chain: LTGQIIEYTIKIQTIYTGNFKHKNGFLKMIERGIAMKKENLKILAKKAQTIAIVGANYRFATRVLLENLDKMDFTGTIYLVNPRYENIDGVRCYQSLLEIEDTIDVVVGLVNPQLMIQVASNASKINAKVLVIPGGGYGESGVEGQNIQNAILERAADSGMRIVGPNCMGYLNMHAQFTPYIGTLHRPLRPIKKGPVSIISQSGSVNDAFIASKLGISKIYSTGNEADVQMHDYLNLLAEDPETSVIILYIEAIRNHLSFLRALDLCSKNKKPVIAIKVGRTIKSAAVANAHSGALAGDYEIEKLFLEGHGVLFVEDIDQAVAVALLLSQPYLPTVNTVAALTVSGGQAGILLDLAEDYGVDFPDFSAVTNYEIASKLPELGGLSNPLDIWGKSSKDFSEVSNICLSSIVKDADIGIITVAIDAPIGQGDHEFDFTSIPAKDLASLRGNSDKPFLYFSHIQTEFDPRVESILDEAGIAVIQGSRNALVACRALFKYKEFLEKNNHTPIYSVEDLSIQKGLKLLHDNEGRKLLDESGFVSPREQVVTSLQEGVDYAESIGYPVVLKAQGLAHKTDVGGVALNIKSAAKLKKAWGKMEHLNSPYYLIQEMVTDGFETILAYRTDMNYGPVVIFGLGGIYTELFNEVVLAVPPITHKKAEQMVKSIPMLWKSIEGYRGNPALDLEALTASIVQMGETAMEKYEEIVEFEINPLSVRVKGVVALDVLASVKTTAAKEADAEEADVKKCSELV
notes: full length (2247 bp gene), pET-22b, C-terminal His tag, E. coli BL21(DE3); dimer in solution
- Km [1]: 400 µM
- kcat [1]: 0.7 s⁻¹
- Km [2]: 400 µM
- Km [3]: 2500 µM
